Laboratory results as given in patent publication US20030082150A1.

Key:
[1] = target: HLA.A1 molecule on cells that do not express the antigen MAGE-1 (infected with control adenovirus Ad-βgal) (human); assay: cell-based or functional assay
[2] = target: Mage-1 antigenic nonapeptide presented by the HLA.A1 molecule on cells (human) (UniProt P43355); assay: cell-based or functional assay

T cell receptor of the anti-Mage-1 CTL clone 82:30 (TCR)
% lysis, 51Cr release 4 h, E/T 0.1, C1R infected Ad β gal (500 pfu/cell) [1]: 2% | % lysis, 51Cr release 4 h, E/T 0.1, Gerlach E- infected Ad β gal (500 pfu/cell) [1]: 2% | % lysis, 51Cr release 4 h, E/T 0.3, C1R infected Ad β gal (500 pfu/cell) [1]: 1% | % lysis, 51Cr release 4 h, E/T 0.3, Gerlach E- infected Ad β gal (500 pfu/cell) [1]: 0% | % lysis, 51Cr release 4 h, E/T 1, C1R infected Ad β gal (500 pfu/cell) [1]: 3% | % lysis, 51Cr release 4 h, E/T 1, Gerlach E- infected Ad β gal (500 pfu/cell) [1]: 0% | % lysis, 51Cr release 4 h, E/T 3, C1R infected Ad β gal (500 pfu/cell) [1]: 4% | % lysis, 51Cr release 4 h, E/T 3, Gerlach E- infected Ad β gal (500 pfu/cell) [1]: 0% | % lysis, 51Cr release 4 h, E/T 10, C1R infected Ad β gal (500 pfu/cell) [1]: 2% | % lysis, 51Cr release 4 h, E/T 10, Gerlach E- infected Ad β gal (500 pfu/cell) [1]: 0% | % lysis, 51Cr release 4 h, E/T 30, C1R infected Ad β gal (500 pfu/cell) [1]: 3% | % lysis, 51Cr release 4 h, E/T 30, Gerlach E- infected Ad β gal (500 pfu/cell) [1]: 0% | TNF produced by the CTL clone, +CTL, Gerlach E- infected with Ad. βgal, 50 pfu/cell [1]: 0 pg TNF | TNF produced by the CTL clone, +CTL, Gerlach E- infected with Ad. βgal, 100 pfu/cell [1]: 0 pg TNF | % lysis, 51Cr release 4 h, E/T 0.1, C1R infected Ad Mage-1 (500 pfu/cell) [2]: 28% | % lysis, 51Cr release 4 h, E/T 0.1, C1R transfected with Mage-1 [2]: 19% | % lysis, 51Cr release 4 h, E/T 0.1, Gerlach E- infected Ad Mage-1 (500 pfu/cell) [2]: 2% | % lysis, 51Cr release 4 h, E/T 0.3, C1R infected Ad Mage-1 (500 pfu/cell) [2]: 44% | % lysis, 51Cr release 4 h, E/T 0.3, C1R transfected with Mage-1 [2]: 25% | % lysis, 51Cr release 4 h, E/T 0.3, Gerlach E- infected Ad Mage-1 (500 pfu/cell) [2]: 5% | % lysis, 51Cr release 4 h, E/T 1, C1R infected Ad Mage-1 (500 pfu/cell) [2]: 44% | % lysis, 51Cr release 4 h, E/T 1, C1R transfected with Mage-1 [2]: 30% | % lysis, 51Cr release 4 h, E/T 1, Gerlach E- infected Ad Mage-1 (500 pfu/cell) [2]: 6% | % lysis, 51Cr release 4 h, E/T 3, C1R infected Ad Mage-1 (500 pfu/cell) [2]: 61% | % lysis, 51Cr release 4 h, E/T 3, C1R transfected with Mage-1 [2]: 45% | % lysis, 51Cr release 4 h, E/T 3, Gerlach E- infected Ad Mage-1 (500 pfu/cell) [2]: 13% | % lysis, 51Cr release 4 h, E/T 10, C1R infected Ad Mage-1 (500 pfu/cell) [2]: 59% | % lysis, 51Cr release 4 h, E/T 10, C1R transfected with Mage-1 [2]: 40% | % lysis, 51Cr release 4 h, E/T 10, Gerlach E- infected Ad Mage-1 (500 pfu/cell) [2]: 15% | % lysis, 51Cr release 4 h, E/T 30, C1R infected Ad Mage-1 (500 pfu/cell) [2]: 62% | % lysis, 51Cr release 4 h, E/T 30, C1R transfected with Mage-1 [2]: 33% | % lysis, 51Cr release 4 h, E/T 30, Gerlach E- infected Ad Mage-1 (500 pfu/cell) [2]: 15% | TNF produced by the CTL clone, +CTL, Gerlach E+ (HLA A1+) (Mage 1+) [2]: 45 pg TNF | TNF produced by the CTL clone, +CTL, Gerlach E- infected with Ad. Mage 1, 50 pfu/cell [2]: 4 pg TNF | TNF produced by the CTL clone, +CTL, Gerlach E- infected with Ad. Mage 1, 100 pfu/cell [2]: 12 pg TNF | optical density (MTT, WEHI-164-13 viability) of 24 h supernatant, +CTL, Gerlach E+ (HLA A1+) (Mage 1+) (optical density) [2]: 0.17 | optical density (MTT, WEHI-164-13 viability) of 24 h supernatant, +CTL, Gerlach E- infected with Ad. Mage 1, 50 pfu/cell (optical density) [2]: 0.58 | optical density (MTT, WEHI-164-13 viability) of 24 h supernatant, +CTL, Gerlach E- infected with Ad. Mage 1, 100 pfu/cell (optical density) [2]: 0.355
